The test addresses "Bac-wt" human IL-23 (identical to elastikine in sequence, expressed in SF9 cells) (human) (UniProt P29460). Briefly: BIAcore SPR, antibody immobilised on CM5 chip, IL-23 in solution. A general note: Surface plasmon resonance follows binding to a sensor surface in real time, without labels.

B1: humanized anti-human IL-23p19 antibody 7G10 (antibody, human IgG1, kappa, V domains shown)
VH: QVQLVQSGAEVKKPGASVKVSCKASGYTFTSNVMHWVRQAPGQGLEWMGYINPYNDGTKYNEKFKGRVTMTTDTSTSTAYMELRSLRSDDTAVYYCARNWDVAYWGQGTLVTVSS
VL: DIQMTQSPSSLSASVGDRVTITCRASQSISDYLHWYQQKPGKAPKLLIYYASQSISGVPSRFSGSGSGTDFTLTISSLQPEDFATYYCQNGHSFPFTFGQGTKVEIKR
Usually Kd stands for a measure of binding affinity in units of concentration. High values mean weaker binding, low ones tighter binding. The molecule B1 showed a Kd of 10 nM.

B2: humanized anti-human IL-23p19 antibody 6H12 (antibody, human IgG1, kappa, V domains shown)
VH: QVQLVQSGAEVKKPGASVKVSCKASGYTFNRYLIHWVRQAPGQGLEWMGYINPNNAGTNYNEKFKGRVTMTTDTSTSTAYMELRSLRSDDTAVYYCARNWDQAYWGQGTLVTVSS
VL: DIQMTQSPSSLSASVGDRVTITCRASQSISDYLHWYQQKPGKAPKLLIYYTSQSISGVPSRFSGSGSGTDFTLTISSLQPEDFATYYCQNGHSFPFTFGQGTKVEIKR
Molecule B2 registered a Kd of 5.1 nM. Compared with the last molecule, the Kd is about 2-fold lower.

These data come from US20130039916A1.
